B1: AB-009760 (antibody, V domains shown)
VH: EVQLVQSGAEVKKPGESLKISCKGSGYSFTSYWIGWVRQMPGKGLEWMGIIYPGDSDTRYSPSFQGQVTISADKSISTAYLQWSSLKASDTAMYYCARSRSSDYFDYWGQGTLVTVSS
VL: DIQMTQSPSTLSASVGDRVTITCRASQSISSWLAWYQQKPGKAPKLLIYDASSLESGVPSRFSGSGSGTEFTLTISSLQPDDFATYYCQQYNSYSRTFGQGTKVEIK
B2: AB-009769 (antibody, V domains shown)
VH: EVQLVESGGGLVQPGGSLRLSCAASGFTFSSYWMSWVRQAPGKGLEWVANIKQDGSEKYYVDSVKGRFTISRDNAKNSLYLQMNSLRAEDTAVYYCARSPEVLWFGDPVLDNWFDPWGQGTLVTVSS
VL: SYELTQPPSVSVSPGQTARITCSGDALPKQYAYWYQQKPGQAPVLVIYKDSERPSGIPERFSGSSSGTTVTLTISGVQAEDEADYYCQSADSSGTYPVVFGGGTKLTVL
B3: AB-009661 (antibody, V domains shown)
VH: QVQLVESGGGVVQPGRSLRLSCAASGFTFSSYGMHWVRQAPGKGLEWVAVISYDGSNKYYADSVKGRFTISRDNSKNTLYLQMNSLRAEDTAVYYCAKDYGDYGGMDVWGQGTTVTVSS
VL: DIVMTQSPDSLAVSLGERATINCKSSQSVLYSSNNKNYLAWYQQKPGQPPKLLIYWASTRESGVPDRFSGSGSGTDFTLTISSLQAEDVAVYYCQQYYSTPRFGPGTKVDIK
B4: AB-009620 (antibody, V domains shown)
VH: QITLKESGPTLVKPTQTLTLTCTFSGFSLSTSGVGVGWIRQPPGKALEWLALIYWDDDKRYSPSLKSRLTITKDTSKNQVVLTMTNMDPVDTATYYCAHHEVATVFDYWGQGTLVTVSS
VL: QSALTQPASVSGSPGQSITISCTGTSSDVGAYNYVSWYQQHPGKAPKLMIYEVSNRPSGVSNRFSGSKSGNTASLTISGLQAEDEADYYCSSYTSSSTVFGGGTKLTVL
B5: AB-009666 (antibody, V domains shown)
VH: EVQLVESGGGLVQPGGSLRLSCAASGFTFSSYDMHWVRQATGKGLEWVSTIGTAGDTYYPGSVKGRFTISRENAKNSLYLQMNSLRAEDTAVYYCARVNYDSSGYPTYWYFDLWGRGTLVTVSS
VL: DIQMTQSPSSLSASVGDRVTITCRASQSISRYLNWYQQKPGKAPKLLIYAASSLQSGVPSRFSGSGSGTDFTLTISSLQPEDFATYNCQQSYSSPPWTFGQGTKVEIK
B6: AB-009269 (antibody, V domains shown)
VH: QVQLVQSGAEVKKPGASVKVSCKASGYTFTSYGISWVRQAPGQGLEWMGWISAYNGNTNYAQKLQGRVTMTTDTSTSTAYMELRSLRSDDTAVYYCAREGDCSGGSCYSGYYYYYGMDVWGQGTTVTVSS
VL: EIVLTQSPATLSLSPGERATLSCRASQSVSSYLAWYQQKPGQAPRLLIYDASNRATGIPARFSGSGSGTDFTLTISSLEPEDFAVYYCQQRSNWGTFGPGTKVDIK
B7: AB-009221 (antibody, V domains shown)
VH: EVQLVESGGGLVQPGGSLRLSCAASGFTVSSNYMSWVRQAPGKGLEWVSVIYSGGSTYYADSVKGRFTISRHNSKNTLYLQMNSLRAEDTAVYYCARDRNAFDIWGQGTMVIVSS
VL: DIQMTQSPSSLSASVGDRVSITCQASQDISNDLNWYQQKPGKAPKLLVYDASKLETGVPPRFSGSGSGTDFTFTISSLQPEDIATYYCQQYDNLPLYSFGQGTKLEIK
B8: AB-009747 (antibody, V domains shown)
VH: QVQLVESGGGVVQPGGSLRLSCAASGFTFSNYGMHWVRQAPGKGLEWVAFIRYDGSNEYYADSVKGRFTISRDNSKNTLYLHMNSLRPEDTAVYYCAKQGLLSNYYYGMDVWGQGTTVTVSS
VL: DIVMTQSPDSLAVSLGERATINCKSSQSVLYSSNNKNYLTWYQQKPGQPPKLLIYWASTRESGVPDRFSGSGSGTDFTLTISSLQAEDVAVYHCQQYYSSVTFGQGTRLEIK
B9: AB-009616 (antibody, V domains shown)
VH: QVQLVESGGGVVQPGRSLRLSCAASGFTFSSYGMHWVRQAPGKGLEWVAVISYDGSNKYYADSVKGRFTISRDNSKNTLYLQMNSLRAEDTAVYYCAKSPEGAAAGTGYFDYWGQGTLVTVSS
VL: SYVLTQPPSVSVAPGKTARITCGGNNIGSKSVHWYQQKPGQAPVLVVYDDSDRPSGIPERFSGSNSGNTATLTISRVEAGDEADYYCQVWDSSSDPWVFGGGTKLTVL
B10: AB-009214 (antibody, V domains shown)
VH: QVQLVESGGGVVQPGRSLRLSCAASGFTFSSYGMHWVRQAPGKGLEWVAVIWYDGSNKYYADSVKGRFTISRDNSKNTLYLQMNSLRAEDTAVYYCARDEPPSYYGSGSRFDYWGQGTLVTVSS
VL: SYELTQPPSVSVSPGQTARITCSGDALPKKYAYWYQQKSGQAPVLVIYEDSKRPSGIPERFSGSSSGTMATLTISGAQVEDEADYYCYSTDSSGNHWVFGGGTKLTVL
B11: AB-009291 (antibody, V domains shown)
VH: EVHLLESGGGLVQPGGSLRLSCAASGFTFTTYAMFWVRQAPGKGLEWVSAINAGGAKTHYADSVRGRFTISRDNSKSTLYLHMDRLRVGDTAIYYCAKVPSYIYDSRDDYLDFWGQGTLVTVSS
VL: EIVLTQSPATLSLSPGERATLSCRASQSVSSYLAWYQQRPGQAPRLLIYDASSRATGIPVRFSGSGSGTDFTLTISSLEPEDFAVYYCQQRSDWPLLTFGGGTKVEIK
B12: AB-009363 (antibody, V domains shown)
VH: EVQLLESGGGLVQPGGSLRLSCAASGFTFSSFAMTWIRQAPGKGLEWISAIGGDGGATYYVDSIKGRFTISRDNSKNTVYLHMNGLRVEDTAVYYCATPSPTRYSWGQGTLVTVSS
VL: DIVMTQSPDSLAVSLGERATLNCKSSQSVLYSSNNKNYLAWYQQKPGQPPKLLFYWASTRQSGVPDRFSGSGSGTDFTLTISSLQAEDGAVYYCQQYHKTPHTFGQGTKLEIK
B13: AB-009080 (antibody, V domains shown)
VH: QVQLQQWGAGLLKPSETLSLTCAVYGGSFSGYYWSWIRQPPGKGLEWIGEINHSGSTNYNPSLKSRVTISVDTSKNQFSLKLSSVTAADTAVYYCARGLPVTTFYYYYYGMDVWGQGTTVTVSS
VL: not shown
B14: AB-009226 (antibody, V domains shown)
VH: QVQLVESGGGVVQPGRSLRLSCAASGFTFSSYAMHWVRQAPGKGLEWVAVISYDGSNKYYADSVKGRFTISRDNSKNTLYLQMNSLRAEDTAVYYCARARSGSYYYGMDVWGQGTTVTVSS
VL: QSALTQPASVSGSPGQSITISCTGTSSDVGGYNYVSWYQQHPGKAPKLMIYEVSNRPSGVSNRFSGSKSGNTASLTISGLQAEDEADYYCSSYTSSSTLYVFGTGTKVTVL
B15: AB-009083 (antibody, V domains shown)
VH: EVHLLESGGGLVQPGGSLTLTCAASGFSFGNYVMGWVRQAPGKGLEWVSSIFGSGANPHYGGSVKGRFTISRDNSQNTLFLQMDSLTAEDTAVYYCARDGGTMVGGIITGGFNYFDSWGQGTLVTVSS
VL: EIVLTQSPASLSLSPGGWATLSCRASRSIGNSLAWYQQRPGQAPRLLIYDASNRATGIPARFSGSGSGTDFTLTISSLEPEDFAIYYCQQRNSWPPLYTFGQGTKLEIK
B16: AB-009106 (antibody, V domains shown)
VH: QVQLAQSGAEVKRPGASVKVSCKASGFDLTTYGVGWVRQAPGQGLEWMGWISGSSGDTHYAQQFQDRVTMTTDTPTSTAYMELRSLRSDDTAVYYCVRENIAHYGSRTFLVRYYRGMDVWGQGTTVTVAS
VL: QSALTQPASVSGSPGQSITITCTGSSSDIGGFDFVSWYQQYPGKAPKLVISEVTNRPSGVSIRFSGSKSGNTASLTISGLQAEDEADYYCSSYASSYPTTNTRVFGTGTKVTVL
B17: AB-009329 (antibody, V domains shown)
VH: QLQLQESGPGLVKPSETLSLTCTVSGGSISSSSYYWGWIRQPPGKGLEWIGSIYYSGSTYYNPSLKSRVTISVDTSKNQFSLKLSSVTAADTAVYYCARHKMGWLQFAGWFDPWGQGTLVTVSS
VL: SSELTQDPAVSVALGQTVRITCQGDSLRSYYASWYQQKPGQAPVLVIYGKNNRPSGIPDRFSGSSSGNTASLTITGAQAEDEADYYCNSRDSSGNHWVFGGGTKLTVL
B18: AB-009110 (antibody, V domains shown)
VH: QVQLVQSGAEVKEPGASVKVSCNASGYIFTSYGISWVRQAPGQGLEWVGWISGNNGNTNYAQKFQGRVTLTTDTSTSTAYLELRSLTSADTGVYFCARARLPSAYWGPGTLLTVSS
VL: EILLTQSPATLSVSPGERGSLSCRASQSVGTNLAWYQQKPGQAPRLLIYGASARATGIPARFSGSGSGTEFTLTISSLQSEDFGVYYCQQYNDWPPWTFGQGTKVEIK
B19: AB-009361 (antibody, V domains shown)
VH: EVQLVESGGGLAQPGGTLRLSCTGYGFIFNNYGLTWVRQAPGKGLEWLSVLSGSSYIKYEADSVRGRFTISRDNSKNTLYLEMNSLTAEDTAVYYCARKGVGSQDYGLDVWGQGTTVIVSS
VL: QSVLAQPPSASETPGQSVTISCSGSTSNIGSNFVYWYQQLPGTAPKLLIYRNTQRPSGVPDRFSGSKSATSASLAISGLRPEDEADYYCAAWDDSLSGGVFGTGTKVTVL
B20: AB-009343 (antibody, V domains shown)
VH: QAQLVESGGGVVQPGRSLRLSCAASGFTFNNHGMHWVRQVPGKGLEWVAVISYEGSKKDYADSVKGRFSISRDNSKQTVYLQMNSLRVEDTAVYYCAKDAAIFMIYPSRYFDLWGRGTLLTVSS
VL: SYELTQPPSMSVSPGQTASITCSGYILGDVSASWYQQKPGQSPVLIIYQDTKRPSGIPDRFSGSDSGNTATLTISGTQATDEADYYCQAWDSRTHVVFGGGTKLTVL
B21: AB-009364 (antibody, V domains shown)
VH: QVQLVESGGGVVQPGRSLRLSCAASGFTFSSYAMHWVRQAPGKGLEWVAVISYDGSNKYYADSVKGRFTISRDNSKNTLYLQMNSLRAEDTAVYYCARDPDYYDSSSDAFDIWGQGTMVTVSS
VL: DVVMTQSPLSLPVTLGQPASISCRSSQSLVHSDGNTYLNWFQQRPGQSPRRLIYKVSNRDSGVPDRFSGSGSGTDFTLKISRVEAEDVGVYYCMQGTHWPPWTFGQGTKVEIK

Molecular target: SARS-CoV-2 spike S1 protein (SARS-CoV-2, UniProt P0DTC2 16-685)
Assay: not given

Row | Binder | Kd [nM] | koff [s⁻¹] | kon [M⁻¹ s⁻¹]
1 | B1 | 4.16 | 0.000267 | 64000
2 | B2 | 106 | 0.00194 | 18400
3 | B3 | 84 | 0.00428 | 51000
4 | B4 | 27.5 | 0.00078 | 28400

Molecular target: SARS-CoV-2 spike receptor-binding domain (RBD) (SARS-CoV-2, UniProt P0DTC2 319-541)
Assay: not given

Row | Binder | Kd [nM] | koff [s⁻¹] | kon [M⁻¹ s⁻¹]
5 | B5 | 3.04 | 0.00062 | 204000
6 | B6 | 12 | 0.000675 | 56300
7 | B7 | 26.4 | 0.00121 | 45800
8 | B8 | – | 0.00105 | –
9 | B9 | 3 | 0.000287 | 95800

Molecular target: SARS-CoV-2 spike S1 protein (SARS-CoV-2, UniProt P0DTC2 16-685)
Assay: not given
Remark: another data set of the same source

Row | Binder | Kd [nM] | koff [s⁻¹] | kon [M⁻¹ s⁻¹]
10 | B5 | 11.9 | 0.000546 | 45900
11 | B6 | 16.7 | 0.000643 | 38500
12 | B7 | 34 | 0.00128 | 37700
13 | B8 | 45.2 | 0.00379 | 83700
14 | B9 | 13.3 | 0.000755 | 56900

Molecular target: SARS-CoV-2 spike S2 protein (SARS-CoV-2, UniProt P0DTC2 686-1213)
Assay: not given

Row | Binder | Kd [nM] | koff [s⁻¹] | kon [M⁻¹ s⁻¹]
15 | B10 | 23.2 | – | –
16 | B11 | 0.0174 | 3.28e-07 | 18900
17 | B12 | 192 | 0.0016 | 8330
18 | B13 | 0.111 | 2.79e-07 | 2520
19 | B14 | 27.9 | 0.000783 | 28100
20 | B15 | 0.164 | 4.95e-07 | 3010
21 | B16 | 0.0413 | 2.63e-07 | 6370

Molecular target: SARS-CoV-2 Spike (S) trimer (SARS-CoV-2, UniProt P0DTC2 16-1213)
Assay: ELISA on coated S trimer, 1:50

Row | Binder | OD 450 nm [OD]
22 | B10 | 0.691
23 | B17 | 0.235
24 | B11 | 2.26
25 | B12 | 2.94
26 | B13 | 0.166
27 | B14 | 2.33
28 | B18 | 0.081
29 | B19 | 1.39
30 | B20 | 0.459
31 | B15 | 0.249
32 | B21 | 1.06
33 | B16 | 0.1

From US20240327505A1 (published 2024)
